Measured values: patent US10174097B2, “Specific A-beta species-binding peptides for the therapy and/or diagnosis of Alzheimer's dementia” (Forschungszentrum Juelich GmbH, priority 2015, dated 2019)
[ ]: non-standard residue; d: D form. d(hArg) = N=C(N)NCCCC[C@@H](N)C(=O)O; dPhg = N[C@@H](C(=O)O)c1ccccc1

How the values were obtained:
Abeta fibrils [1] = molecular target: T1, Abeta fibrils (Homo sapiens, UniProt P05067); test: Peptide microarray, binding of FITC Abeta fibrils to immobilized peptides; conditions: 1 hour at room temperature, control subtracted, averaged
T1 construct: Pre-incubated Abeta was co-incubated with the peptides
Procedure: (§1) The procedure for identifying peptides that bind specifically to amyloid beta monomer or specifically to amyloid beta oligomers and for determining the binding specificity of peptides within the meaning of the present invention can thus be as follows. Peptide microarrays comprising various peptides immobilized on a surface, such as derivatives of D3, are each incubated with different species of Abeta (such as monomers, oligomers and fibrils) labeled with a fluorescent dye. A peptide microarray is incubated with only the fluorescent dye to serve as the control. So as to ensure the reproducibility of the results, the incubation of the peptide microarrays can be carried out at least three times for each species. The binding of the fluorescence-labeled Abeta to the immobilized peptides is detected by way of the fluorescent dye. The more Abeta binds to the peptide, the higher the fluorescence signal is. The measured fluorescence signals of the reproductions are standardized, and the […]. This avoids binding of the fluorescence-labeled Abeta via the dye. The binding signals of an Abeta species to a peptide are then averaged. So as to determine the binding specificity, the quotient of the species to which the peptide is to specifically bind and another species is found.
(§2) Pretreatment of the peptide microarray slides: • briefly dip 3× in ethanol (96%) and then wash with H2O (30 minutes) • briefly dry by way of centrifuging
Preparation of fibrils: • incubate Abeta over 3 days, centrifuge, discard supernatant and resuspend in buffer (repeat 3 times)
(§3) Carrying out the peptide microarray: • incubate with FITC Abeta monomers, oligomers, fibrils and FITC for 1 hour at room temperature • wash: TBS-T briefly 3× (only TBS-T buffer is replaced), 3×10 minutes in a flacon, 3×H2O, 3×10 minutes • dry by way of centrifugation • The binding of the fluorescence-labeled Abeta to the immobilized peptides is detected by way of the fluorescent dye using the microarray reader FLA800 from Fuji Film. The more Abeta binds to the peptide, the higher is the fluorescence signal. • carrier set mode: slides • resolution: 10 μm • scan mode: high sensitivity (slow): scan pixel at 200 mm/s • laser: 473 nm • filter: 530 DF 20 • photomultiplier tube (PMT) HV (%): 100 • images were stored as .tif files
(§4) The software, AIDA Metrix, from Raytest was used to evaluate the fluorescence signals:
(§5) To ensure the reproducibility of the results, the incubation of the peptide microarrays is carried out at least three times for each species.
(§6) The measured fluorescence signals of the reproductions are standardized using a median-based standardization, and the control was subtracted from the signal. This avoided the binding of the fluorescence-labeled Abeta via the dye.
(§7) The binding signals of an Abeta species to a peptide were averaged.

Abeta oligomers [2] = molecular target: T2, Abeta oligomers (Homo sapiens, UniProt P05067); test: Peptide microarray, binding of FITC Abeta oligomers to immobilized peptides; conditions: 1 hour at room temperature, control subtracted, averaged
Procedure: as §1, §2
(§8) Preparation of monomers and oligomers: • size exclusion chromatography according to Johansson et al. 2006 (Johansson, A.-S. et al. Physiochemical characterization of the Alzheimer's disease-related peptides Aβ1-42Arctic and Aβ1-42 wt. FEBS Journal 273, 2618-2630 (2006)). • oligomers were fractionated at 8-9 ml, monomers at 16-17 ml.
as §3, §4, §5, §6, §7

Abeta oligomers [3] = molecular target: T2, Abeta oligomers; test: QIAD method, elimination of Abeta oligomers (density gradient centrifugation, RP-HPLC); type: biochemical; conditions: ratio of Abeta to peptide of 8:1, fractions 4-6, FIG. 2
Procedure: Using the QIAD method for the quantitative characterization of amyloid peptides and/or proteins in a sample, it was possible to quantify the properties of the substances. Pre-incubated Abeta was co-incubated with the peptides. The different Abeta species were separated by way of density gradient centrifugation and quantified in the individual fractions by way of RP-HPLC Abeta. The elimination of the Abeta oligomers in fractions 4-6 was analyzed.

Abeta fibrils [4] = molecular target: T1, Abeta fibrils; test: ThT assay, formation of ThT positive Abeta fibrils; type: biochemical; conditions: 48 hours, co-incubation with Abeta, FIG. 3
Abeta monomers = molecular target: T3, Abeta monomers (Homo sapiens, UniProt P05067); test: Peptide microarray, binding of FITC Abeta monomers to immobilized peptides; conditions: for Binding signal to Abeta monomers: peptide microarray, FITC Abeta, 1 hour at room temperature, control subtracted, averaged; for Binding specificity monomer to fibrils: quotient binding signal to monomers / binding signal to fibrils; for Binding specificity monomer to oligomer: quotient binding signal to monomers / binding signal to oligomers
T3 construct: incubate with FITC Abeta monomers, oligomers, fibrils and FITC for 1 hour at room temperature
Procedure: as §1, §2, §8, §3, §4, §5, §6, §7
So as to determine the binding specificity, the quotient of the species to which the peptide is to specifically bind and another species is created.
Example: binding specificity of peptide X to Abeta monomers=binding signal of peptides X to monomers/binding signal of peptides X to oligomers.

T2 sequence (P05067 672-713 limits assumed): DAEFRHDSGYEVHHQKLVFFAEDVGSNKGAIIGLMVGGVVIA
T3 sequence (P05067 672-713 limits assumed): as above
T1 sequence (P05067 672-713 limits assumed): as above

| Substance | Binding signal to Abeta fibrils (Abeta fibrils [1]) [rfu] | Binding signal to Abeta oligomers (Abeta oligomers [2]) [rfu] | Elimination of Abeta oligomers (Abeta oligomers [3]) [%] | ThT fluorescence during the entire measuring time period (Abeta fibrils [4]) | Binding signal to Abeta monomers (Abeta monomers) [rfu] | Binding specificity monomer to fibrils (Abeta monomers) | Binding specificity monomer to oligomer (Abeta monomers) |
| --- | --- | --- | --- | --- | --- | --- | --- |
| rkrirl06yhwnr (H-[dR][dK][dR][dI][dR][dL][dPhg][dY][dH][dW][dN][dR]-NH2; SMILES CC[C@@H](C)[C@@H](NC(=O)[C@@H](CCCNC(=N)N)NC(=O)[C@@H](CCCCN)NC(=O)[C@H](N)CCCNC(=N)N)C(=O)N[C@H](CCCNC(=N)N)C(=O)N[C@H](CC(C)C)C(=O)N[C@@H](C(=O)N[C@H](Cc1ccc(O)cc1)C(=O)N[C@H](Cc1c[nH]cn1)C(=O)N[C@H](Cc1c[nH]c2ccccc12)C(=O)N[C@H](CC(N)=O)C(=O)N[C@H](CCCNC(=N)N)C(N)=O)c1ccccc1) [ANK3, D3 derivative; 06: Phenylglycine (D)] | 0.2 | 0.6 | 62±10 | remains at the level of the first measured value | 3.6 | 21.9 | 6.5 |
| rkrirlvyhinr (H-[dR][dK][dR][dI][dR][dL][dV][dY][dH][dI][dN][dR]-NH2; SMILES CC[C@@H](C)[C@@H](NC(=O)[C@@H](Cc1c[nH]cn1)NC(=O)[C@@H](Cc1ccc(O)cc1)NC(=O)[C@H](NC(=O)[C@@H](CC(C)C)NC(=O)[C@@H](CCCNC(=N)N)NC(=O)[C@H](NC(=O)[C@@H](CCCNC(=N)N)NC(=O)[C@@H](CCCCN)NC(=O)[C@H](N)CCCNC(=N)N)[C@H](C)CC)C(C)C)C(=O)N[C@H](CC(N)=O)C(=O)N[C@H](CCCNC(=N)N)C(N)=O) [ANK1, D-enantiomeric 12-mer peptide derived from D3] | 1.3 | 1.9 | 51±6 | remains at the level of the first measured value | 6.6 | 5.1 | 3.5 |
| rpr07rlhtkkkr (H-[dR][dP][dR][d(hArg)][dR][dL][dH][dT][dK][dK][dK][dR]-NH2; SMILES CC(C)C[C@@H](NC(=O)[C@@H](CCCNC(=N)N)NC(=O)[C@@H](CCCCNC(=N)N)NC(=O)[C@@H](CCCNC(=N)N)NC(=O)[C@H]1CCCN1C(=O)[C@H](N)CCCNC(=N)N)C(=O)N[C@H](Cc1c[nH]cn1)C(=O)N[C@@H](C(=O)N[C@H](CCCCN)C(=O)N[C@H](CCCCN)C(=O)N[C@H](CCCCN)C(=O)N[C@H](CCCNC(=N)N)C(N)=O)[C@H](C)O) [ANK18, D3 derivative; 07: D-Homoarginine] | 0.1 | 0.2 |  |  | 1.2 | 9.4 | 7.0 |
| rprvrl06yhwnr (H-[dR][dP][dR][dV][dR][dL][dPhg][dY][dH][dW][dN][dR]-NH2; SMILES CC(C)C[C@@H](NC(=O)[C@@H](CCCNC(=N)N)NC(=O)[C@H](NC(=O)[C@@H](CCCNC(=N)N)NC(=O)[C@H]1CCCN1C(=O)[C@H](N)CCCNC(=N)N)C(C)C)C(=O)N[C@@H](C(=O)N[C@H](Cc1ccc(O)cc1)C(=O)N[C@H](Cc1c[nH]cn1)C(=O)N[C@H](Cc1c[nH]c2ccccc12)C(=O)N[C@H](CC(N)=O)C(=O)N[C@H](CCCNC(=N)N)C(N)=O)c1ccccc1) [ANK15, D3 derivative; 06: Phenylglycine (D)] | 0.1 | 0.6 |  |  | 1.3 | 12.2 | 2.2 |
| rkrirl06yhinr (H-[dR][dK][dR][dI][dR][dL][dPhg][dY][dH][dI][dN][dR]-NH2; SMILES CC[C@@H](C)[C@@H](NC(=O)[C@@H](Cc1c[nH]cn1)NC(=O)[C@@H](Cc1ccc(O)cc1)NC(=O)[C@H](NC(=O)[C@@H](CC(C)C)NC(=O)[C@@H](CCCNC(=N)N)NC(=O)[C@H](NC(=O)[C@@H](CCCNC(=N)N)NC(=O)[C@@H](CCCCN)NC(=O)[C@H](N)CCCNC(=N)N)[C@H](C)CC)c1ccccc1)C(=O)N[C@H](CC(N)=O)C(=O)N[C@H](CCCNC(=N)N)C(N)=O) [ANK2, D3 derivative; 06: Phenylglycine (D)] | 0.8 | 1.6 | 54±7 | remains at the level of the first measured value | 5.6 | 7.1 | 3.4 |
| rkrirl06yhikr (H-[dR][dK][dR][dI][dR][dL][dPhg][dY][dH][dI][dK][dR]-NH2; SMILES CC[C@@H](C)[C@@H](NC(=O)[C@@H](Cc1c[nH]cn1)NC(=O)[C@@H](Cc1ccc(O)cc1)NC(=O)[C@H](NC(=O)[C@@H](CC(C)C)NC(=O)[C@@H](CCCNC(=N)N)NC(=O)[C@H](NC(=O)[C@@H](CCCNC(=N)N)NC(=O)[C@@H](CCCCN)NC(=O)[C@H](N)CCCNC(=N)N)[C@H](C)CC)c1ccccc1)C(=O)N[C@H](CCCCN)C(=O)N[C@H](CCCNC(=N)N)C(N)=O) [ANK17, D3 derivative; 06: Phenylglycine (D)] | 1.9 | 1.0 |  |  | 4.7 | 2.5 | 4.8 |
| rkr07rlvtkrnr (H-[dR][dK][dR][d(hArg)][dR][dL][dV][dT][dK][dR][dN][dR]-NH2; SMILES CC(C)C[C@@H](NC(=O)[C@@H](CCCNC(=N)N)NC(=O)[C@@H](CCCCNC(=N)N)NC(=O)[C@@H](CCCNC(=N)N)NC(=O)[C@@H](CCCCN)NC(=O)[C@H](N)CCCNC(=N)N)C(=O)N[C@@H](C(=O)N[C@@H](C(=O)N[C@H](CCCCN)C(=O)N[C@H](CCCNC(=N)N)C(=O)N[C@H](CC(N)=O)C(=O)N[C@H](CCCNC(=N)N)C(N)=O)[C@H](C)O)C(C)C) [ANK16, D3 derivative; 07: D-Homoarginine] | 1.5 | 1.4 |  |  | 11.9 | 8.1 | 8.6 |
